US20140274782A1, “AFFINITY REAGENTS AND METHODS FOR DETECTION, PURIFICATION, AND PROTEOMIC ANALYSIS OF METHYLATED PROTEINS” (The Board of Trustees of the Leland Stanford Junior …, priority 2013, published 2014)

T1: G9a and GLP (Homo sapiens, UniProt Q96KQ7+Q9H9B1)
T1 sequence (Q96KQ7 2-1210 limits assumed): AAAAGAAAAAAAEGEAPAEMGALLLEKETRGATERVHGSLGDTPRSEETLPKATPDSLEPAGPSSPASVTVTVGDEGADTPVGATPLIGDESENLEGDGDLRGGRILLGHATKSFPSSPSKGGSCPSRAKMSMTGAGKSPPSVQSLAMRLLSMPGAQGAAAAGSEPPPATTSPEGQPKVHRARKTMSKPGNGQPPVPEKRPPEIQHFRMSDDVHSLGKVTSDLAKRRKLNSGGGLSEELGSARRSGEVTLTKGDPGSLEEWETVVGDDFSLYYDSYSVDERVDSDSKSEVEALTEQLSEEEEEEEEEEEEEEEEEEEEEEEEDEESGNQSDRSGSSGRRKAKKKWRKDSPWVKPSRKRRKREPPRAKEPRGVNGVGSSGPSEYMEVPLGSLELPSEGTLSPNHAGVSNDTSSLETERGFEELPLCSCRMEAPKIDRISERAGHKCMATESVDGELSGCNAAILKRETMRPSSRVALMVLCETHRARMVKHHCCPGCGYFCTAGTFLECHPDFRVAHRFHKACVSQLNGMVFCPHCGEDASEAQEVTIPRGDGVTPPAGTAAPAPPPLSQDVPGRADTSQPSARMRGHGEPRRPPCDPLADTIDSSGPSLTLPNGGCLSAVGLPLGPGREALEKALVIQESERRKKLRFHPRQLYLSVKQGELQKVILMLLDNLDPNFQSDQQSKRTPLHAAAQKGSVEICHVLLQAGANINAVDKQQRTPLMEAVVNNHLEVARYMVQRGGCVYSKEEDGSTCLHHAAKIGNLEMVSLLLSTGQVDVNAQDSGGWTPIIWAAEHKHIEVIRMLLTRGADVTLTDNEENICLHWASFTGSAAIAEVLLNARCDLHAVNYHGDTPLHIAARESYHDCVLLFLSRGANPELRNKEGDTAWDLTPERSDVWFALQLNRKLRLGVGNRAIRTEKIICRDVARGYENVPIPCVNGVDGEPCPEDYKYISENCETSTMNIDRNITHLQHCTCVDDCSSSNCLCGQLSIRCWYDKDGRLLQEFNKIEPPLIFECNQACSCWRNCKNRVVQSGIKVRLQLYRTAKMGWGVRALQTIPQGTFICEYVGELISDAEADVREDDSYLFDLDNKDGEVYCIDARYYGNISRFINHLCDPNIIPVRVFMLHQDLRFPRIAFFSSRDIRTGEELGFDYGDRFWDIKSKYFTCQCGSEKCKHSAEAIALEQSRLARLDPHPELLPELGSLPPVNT
T1 sequence (Q9H9B1 2-1298 limits assumed): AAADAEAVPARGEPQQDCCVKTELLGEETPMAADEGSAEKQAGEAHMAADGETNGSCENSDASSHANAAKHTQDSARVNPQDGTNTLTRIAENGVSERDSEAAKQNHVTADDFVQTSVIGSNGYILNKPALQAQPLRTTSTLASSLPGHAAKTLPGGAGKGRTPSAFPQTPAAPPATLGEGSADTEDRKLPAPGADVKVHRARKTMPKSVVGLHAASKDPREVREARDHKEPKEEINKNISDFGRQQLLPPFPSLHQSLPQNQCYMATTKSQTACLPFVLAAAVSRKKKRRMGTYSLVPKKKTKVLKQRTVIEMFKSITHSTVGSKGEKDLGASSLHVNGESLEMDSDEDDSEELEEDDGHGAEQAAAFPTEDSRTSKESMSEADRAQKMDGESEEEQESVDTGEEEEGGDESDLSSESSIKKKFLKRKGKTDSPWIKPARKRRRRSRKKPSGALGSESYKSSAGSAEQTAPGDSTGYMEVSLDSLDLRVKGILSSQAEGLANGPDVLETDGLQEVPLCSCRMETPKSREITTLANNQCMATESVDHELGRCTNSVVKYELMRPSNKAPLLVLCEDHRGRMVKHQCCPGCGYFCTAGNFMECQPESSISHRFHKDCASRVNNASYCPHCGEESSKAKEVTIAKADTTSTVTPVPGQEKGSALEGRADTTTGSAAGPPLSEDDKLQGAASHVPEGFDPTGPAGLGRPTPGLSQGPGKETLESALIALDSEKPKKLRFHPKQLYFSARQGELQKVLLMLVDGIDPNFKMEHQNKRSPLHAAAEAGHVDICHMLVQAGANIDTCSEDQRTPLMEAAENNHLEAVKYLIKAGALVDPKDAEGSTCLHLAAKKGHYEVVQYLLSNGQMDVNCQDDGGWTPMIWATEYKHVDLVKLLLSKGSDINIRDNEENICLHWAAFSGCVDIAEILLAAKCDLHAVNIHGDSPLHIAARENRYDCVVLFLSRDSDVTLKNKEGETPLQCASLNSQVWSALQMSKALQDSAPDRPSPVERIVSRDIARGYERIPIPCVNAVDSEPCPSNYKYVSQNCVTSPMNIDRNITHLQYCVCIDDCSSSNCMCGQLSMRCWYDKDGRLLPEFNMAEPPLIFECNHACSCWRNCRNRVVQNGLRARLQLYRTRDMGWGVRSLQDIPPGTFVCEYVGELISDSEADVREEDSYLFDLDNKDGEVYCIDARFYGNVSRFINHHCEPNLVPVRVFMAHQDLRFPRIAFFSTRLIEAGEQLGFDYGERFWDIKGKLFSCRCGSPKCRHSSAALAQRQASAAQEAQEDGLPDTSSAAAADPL

B1: CACYBP (protein, UniProt Q9HB71 2-228, looked up)
Calcyclin-binding protein: ASEELQKDLEEVKVLLEKATRKRVRDALTAEKSKIETEIKNKMQQKSQKKAELLDNEKPAAVVAPITTGYTVKISNYGWDQSDKFVKIYITLTGVHQVPTENVQVHFTERSFDLLVKNLNGKSYSMIVNNLLKPISVEGSSKKVKTDTVLILCRKKVENTRWDYLTQVEKECKEKEKPSYDTETDPSEGLMNVLKKIYEDGDDDMKRTINKAWVESREKQAKGDTEF
B2: U2SURP (protein, UniProt O15042 2-1029, looked up)
U2 snRNP-associated SURP …: ADKTPGGSQKASSKTRSSDVHSSGSSDAHMDASGPSDSDMPSRTRPKSPRKHNYRNESARESLCDSPHQNLSRPLLENKLKAFSIGKMSTAKRTLSKKEQEELKKKEDEKAAAEIYEEFLAAFEGSDGNKVKTFVRGGVVNAAKEEHETDEKRGKIYKPSSRFADQKNPPNQSSNERPPSLLVIETKKPPLKKGEKEKKKSNLELFKEELKQIQEERDERHKTKGRLSRFEPPQSDSDGQRRSMDAPSRRNRSSGVLDDYAPGSHDVGDPSTTNLYLGNINPQMNEEMLCQEFGRFGPLASVKIMWPRTDEERARERNCGFVAFMNRRDAERALKNLNGKMIMSFEMKLGWGKAVPIPPHPIYIPPSMMEHTLPPPPSGLPFNAQPRERLKNPNAPMLPPPKNKEDFEKTLSQAIVKVVIPTERNLLALIHRMIEFVVREGPMFEAMIMNREINNPMFRFLFENQTPAHVYYRWKLYSILQGDSPTKWRTEDFRMFKNGSFWRPPPLNPYLHGMSEEQETEAFVEEPSKKGALKEEQRDKLEEILRGLTPRKNDIGDAMVFCLNNAEAAEEIVDCITESLSILKTPLPKKIARLYLVSDVLYNSSAKVANASYYRKFFETKLCQIFSDLNATYRTIQGHLQSENFKQRVMTCFRAWEDWAIYPEPFLIKLQNIFLGLVNIIEEKETEDVPDDLDGAPIEEELDGAPLEDVDGIPIDATPIDDLDGVPIKSLDDDLDGVPLDATEDSKKNEPIFKVAPSKWEAVDESELEAQAVTTSKWELFDQHEESEEEENQNQEEESEDEEDTQSSKSEEHHLYSNPIKEEMTESKFSKYSEMSEEKRAKLREIELKVMKFQDELESGKRPKKPGQSFQEQVEHYRDKLLQREKEKELERERERDKKDKEKLESRSKDKKEKDECTPTRKERKRRHSTSPSPSRSSSGRRVKSPSPKSERSERSERSHKESSRSRSSHKDSPRDVSKKAKRSPSGSRTPKRSRRSRSRSPKKSGKKSRSQSRSPHRSHKKSKKNKH
B3: PRDX6 (protein, UniProt P30041 2-224, looked up)
Peroxiredoxin-6: PGGLLLGDVAPNFEANTTVGRIRFHDFLGDSWGILFSHPRDFTPVCTTELGRAAKLAPEFAKRNVKLIALSIDSVEDHLAWSKDINAYNCEEPTEKLPFPIIDDRNRELAILLGMLDPAEKDEKGMPVTARVVFVFGPDKKLKLSILYPATTGRNFDEILRVVISLQLTAEKRVATPVDWKDGDSVMVLPTIPEEEAKKLFPKGVFTKELPSGKKYLRYTPQP
B4: ZC3HAV1 (protein, UniProt Q7Z2W4 2-902, looked up)
Zinc finger CCCH-type …: ADPEVCCFITKILCAHGGRMALDALLQEIALSEPQLCEVLQVAGPDRFVVLETGGEAGITRSVVATTRARVCRRKYCQRPCDNLHLCKLNLLGRCNYSQSERNLCKYSHEVLSEENFKVLKNHELSGLNKEELAVLLLQSDPFFMPEICKSYKGEGRQQICNQQPPCSRLHICDHFTRGNCRFPNCLRSHNLMDRKVLAIMREHGLNPDVVQNIQDICNSKHMQKNPPGPRAPSSHRRNMAYRARSKSRDRFFQGSQEFLASASASAERSCTPSPDQISHRASLEDAPVDDLTRKFTYLGSQDRARPPSGSSKATDLGGTSQAGTSQRFLENGSQEDLLHGNPGSTYLASNSTSAPNWKSLTSWTNDQGARRKTVFSPTLPAARSSLGSLQTPEAVTTRKGTGLLSSDYRIINGKSGTQDIQPGPLFNNNADGVATDITSTRSLNYKSTSSGHREISSPRIQDAGPASRDVQATGRIADDADPRVALVNDSLSDVTSTTSSRVDDHDSEEICLDHLCKGCPLNGSCSKVHFHLPYRWQMLIGKTWTDFEHMETIEKGYCNPGIHLCSVGSYTINFRVMSCDSFPIRRLSTPSSVTKPANSVFTTKWIWYWKNESGTWIQYGEEKDKRKNSNVDSSYLESLYQSCPRGVVPFQAGSRNYELSFQGMIQTNIASKTQKDVIRRPTFVPQWYVQQMKRGPDHQPAKTSSVSLTATFRPQEDFCFLSSKKYKLSEIHHLHPEYVRVSEHFKASMKNFKIEKIKKIENSELLDKFTWKKSQMKEEGKLLFYATSRAYVESICSNNFDSFLHETHENKYGKGIYFAKDAIYSHKNCPYDAKNVVMFVAQVLVGKFTEGNITYTSPPPQFDSCVDTRSNPSVFVIFQKDQVYPQYVIEYTEDKACVIS
B5: PDCD2L (protein, UniProt Q9BRP1 2-358, looked up)
Programmed cell death protein …: AAVLKPVLLGLRDAPVHGSPTGPGAWTASKLGGIPDALPTVAAPRPVCQRCGQPLALVVQVYCPLEGSPFHRLLHVFACACPGCSTGGARSWKVFRSQCLQVPEREAQDAQKQGNSLAAEDWCEGADDWGSDTEEGPSPQFTLDFGNDASSAKDVDWTARLQDLRLQDAVLGAAHPVPPGLPLFLPYYICVADEDDYRDFVNLDHAHSLLRDYQQREGIAMDQLLSQSLPNDGDEKYEKTIIKSGDQTFYKFMKRIAACQEQILRYSWSGEPLFLTCPTSEVTELPACSQCGGQRIFEFQLMPALVSMLKSANLGLSVEFGTILVYTCEKSCWPPNHQTPMEEFCIIQEDPDELLFK

test system: 3×MBT domain of L3MBTL1; experiment: Triple SILAC pull-down, 3xMBT/3xMBTD355N ratio (cytoplasmic, nuclear and chromatin fractions of 293T cells); assay type: binding, human; settings: SILAC ratio, pull-down 3xMBT vs 3xMBTD355N; experiment with UNC0638 in heavy SILAC media;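 further: proteins quantified with MaxQuant, requiring at least two unique peptides and quantification in both label directions, normalized to the mean of proteins from a digested loading control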

Molecule | 3xMBT/D355N UNC Heavy
B1 | 1.46 log base 2
B2 | 3.19 log base 2
B3 | 2.01 log base 2
B4 | 2.03 log base 2
B5 | 2.68 log base 2

same assay, conditions: SILAC ratio, pull-down 3xMBT vs 3xMBTD355N; experiment with UNC0638 in light SILAC media

Molecule | 3xMBT/D355N UNC Light
B1 | 1.48 log base 2
B2 | 2.58 log base 2
B3 | 2.00 log base 2
B4 | 1.92 log base 2
B5 | 3.19 log base 2

molecular target: T1, G9a and GLP; experiment: Triple SILAC pull-down after UNC0638 treatment of 293T cells, DMSO/UNC0638 ratio of protein captured by 3×MBT; assay type: cell-based; design: cells were treated for 24 hours with UNC0638 at 2.5 μM or DMSO vehicle control; endogenous in cells; host or cells: HEK 293T; settings: SILAC ratio DMSO/UNC0638 of protein pulled down with 3xMBT; UNC0638 in heavy SILAC media;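 further: mass spectrometry (Q-Exactive) SILAC quantitation, DMSO/UNC0638 ratio computed after subtracting 3×MBTD355N mutant pull-down background, only proteins with at least twofold 3×MBT over mutant signal considered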

Relative to UNC0638 UNC Heavy | Molecule
0.29 log base 2 | B1
0.23 log base 2 | B2
0.27 log base 2 | B3
−0.16 log base 2 | B4
0.22 log base 2 | B5

same assay, conditions: SILAC ratio DMSO/UNC0638 of protein pulled down with 3xMBT; UNC0638 in light SILAC media

Relative to UNC0638 UNC Light | Molecule
0.20 log base 2 | B1
0.27 log base 2 | B2
0.23 log base 2 | B3
0.65 log base 2 | B4
0.28 log base 2 | B5

same assay, conditions: average of UNC Light and UNC Heavy experiments

Relative to UNC0638 Average | Molecule
0.25 log base 2 | B1
0.25 log base 2 | B2
0.25 log base 2 | B3
0.25 log base 2 | B4
0.25 log base 2 | B5
